Measured values reported in patent US20150299277A1 (published 2015).

B1: Escherichia coli-expressed N-terminal domain human PTX3 wherein the 47th, 49th, 103rd cysteine residues were replaced with serine residue (other)
chain: ENLYFQGENSDDYDLMYVNLDNEIDNGLHPTEDPTPSDSGQEHSEWDKLFIMLENSQMRERMLLQATDDVLRGELQRLREELGRLAESLARPSAPGAPAEARLTSALDELLQATRDAGRRLARMEGAEAQRPEEAGRALAAVLEELRQTRADLHAVQGWAARSWLPAG
B2: Myc- and His-tagged C-terminal domain human PTX3 (animal cell expressed) (other)
chain: CETAILFPMRSKKIFGSVHPVRPMRLESFSACIWVKATDVLNKTILFSYGTKRNPYEIQLYLSYQSIVFVVGGEENKLVAEAMVSLGRWTHLCGTWNSEEGLTSLWVNGELAATTVEMATGHIVPEGGILQIGQEKNGCCVGGGFDETLAFSGRLTGFNIWDSVLSNEEIRETGGAESCHIRGNIVGWGVTEIQPHGGAQYVS

How the values were obtained:
[1] = biological target: T1, recombinant human histone H4 (UniProt P62805 2-103); experiment: SPR; Ca2+
[2] = biological target: T2, recombinant human histone H3 (UniProt P68431 2-136); experiment: SPR; Ca2+
[3] = biological target: recombinant human histone H2B (human); experiment: SPR; Ca2+
[4] = biological target: T2, recombinant human histone H3; experiment: SPR; EDTA/EGTA
[5] = biological target: T1, recombinant human histone H4; experiment: SPR; EDTA/EGTA

Binder	Kd [1] [nM]	Kd [2] [nM]	Kd [3] [nM]	Kd [4] [nM]	Kd [5] [nM]
B1	1.21	0.354	10.9	1.95	
B2	1.04	5.64		4.77	322
